Several values for one entry are separate records, joined by “and”; a condition that tells them apart may be missing. Equal values may be shown once.
Tests used:
[1] = molecular target: SARS-CoV-2-3Q-2P full-length spike (SARS-CoV-2) (UniProt P0DTC2); test: cryo-EM structure
[2] = molecular target: SARS-CoV-2-3Q-2P full-length spike (SARS-CoV-2) (UniProt P0DTC2); test: cryo-EM structure; remark: listed apart in the source
[3] = molecular target: SARS-CoV-2-3Q-2P full-length spike (SARS-CoV-2) (UniProt P0DTC2); test: negative stain electron microscopy
[4] = molecular target: SARS-CoV-2-3Q-FL spike (without 2P) (SARS-CoV-2) (UniProt P0DTC2); test: cryo-EM structure

Substance	stoichiometry N [1]	stoichiometry N [2]	stoichiometry N [3]	stoichiometry N [4]
SARS-CoV-2-3Q-2P full-length spike (from UniProt P0DTC2 14-1273) (natural protein)	3 and 6	9	3	
SARS-CoV-2-3Q-FL spike (without 2P) (from UniProt P0DTC2 14-1273) (natural protein)				3
